Patent US20080044436A1, “Method for Screening and Compositions for Treating Cancers” (priority 2004, published 2008)

What was measured:
[1] = test system: HeLa cells; assay: Cell cycle analysis by flow cytometry after TReP-132 induction; assay type: cell-based, human; conditions: HTO-GFP/TReP-132 cells, from 48 hours after doxycycline removal
Excerpt: HeLa Tet-off cells expressing the tTA transactivator under the control of tetracycline or doxycycline (Dox) (Clontech Laboratories, Palo Alto, Calif.) were stably transfected with the pBI-EGFP-TReP-132 vector or the pBI-EGFP control vector. In order to select stably transfected cells, the pcDNA6 plasmid (Invitrogen, Ontario, CA) containing the blasticidin resistance gene was cotransfected at a ratio of 1:50. For these transfections, the cells were first seeded in 6-well plates at an initial density of 1×10^5 cells per well, incubated for 24 hours, then transfected with ExGen 500 (MBI Fermentas, Flamborough, Ontario, CA) at a ratio of 5 μl of ExGen 500 for a total of 1 μg of plasmid such as described hereinabove in the section “Colony formation assays”. 48 hours post-transfection, cells were selected for 2 weeks with blasticidin (Sigma-Aldrich CA Ltd.). Clearly visible colonies were then were picked and subcloned on 12-well plates to enable growth. […]
To evaluate the percentage of cells in the G0/G1, S, or G2/M phase, flow cytometry profiles were determined on propidium iodide stained DNA from said cells. […] The percentage of cells in the G1, S, and G2/M phase was quantified with Multicycle AV software (Phoenix Flow System, San Diego, Calif.) (28).

[2] = test system: cyclin A/CDK2; assay: In vitro kinase assay of immunoprecipitated cyclin A/CDK2 (histone H1 substrate); assay type: biochemical, human; conditions: TReP-132 induced for 48 hours in HTO-GFP/TReP-132 cells
Excerpt: FIG. 9A: Kinase activities of each immunoprecipitated cyclin or CDK were quantified using pRb as substrate to measure cyclin D1/CDK6 activity, or histone H1 to measure cyclin A/CDK2 activity. The levels of phosphorylation of histone H1 or pRb in induced HTO cells (HeLa Tet Off) are expressed in relation to the levels in non-induced HTO cells (corresponding to level 1.0).
Cells were washed twice with cold PBS (Phosphate Buffered Saline), then harvested either in cold RIPA buffer (1×PBS, 1% Nonidet P-40, 0.5% sodium deoxycholate, 0.1% SDS, phosphatase and protease inhibitors) for co-immunoprecipitation analysis, or in lysis buffer (50 mM Tris, pH 8.0, 0.1% IGEPAL (Sigma)) for kinase assays. […] The blots were then visualized with ECL reagent and quantified with SCANWISE and Perfect-IMAGE V-5.3 software (CLARA VISION, France).
The kinase activities on histone H1 or Rb protein in the immunoprecipitates were measured as follows: the immunoprecipitates were first washed once with 1 ml of assay buffer (50 mM Tris-HCl, pH 7.4, 10 mM MgCl2, 1 mM dithiothreitol (DTT)), then resuspended in 20 μl of assay buffer containing 1 mg/ml casein (Sigma) and 1 μg of histone H1 or Rb protein (769) (sc-4112) as substrate. […]
The reaction was stopped by addition of 15 μl of electrophoresis buffer (3×). […] Phosphorylated Rb and histones were quantified by densitometry.

[3] = test system: p27^KiP1 gene; assay: RNase protection assay of CDKI transcription in HeLa cells, p27; assay type: cell-based, human; conditions: HeLa Tet-off cells, doxycycline removed
Procedure: All radiolabelled probes specific for the p130, Rb, p107, p53, p57, p27, p21, p19, p18, p14/p15, L32, and GAPDH genes were labelled with [α-^32P]UTP-ribonucleotide (PerkinElmer Life Sciences, Woodbridge, Ontario, CA) in the conditions specified in the “hCC-2 Muti-Probe Template Set” kit (Pharmingen, Mississauga, Ontario, CA). Ribonuclease protection experiments were carried out with the Ribonuclease III Protection kit (Ambion, Austin, Tex.). Ten micrograms of HeLa cell RNA were hybridized with the radiolabelled probe mixture at 56° C. and then digested for 45 min at 30° C. in RNase A/RNase T1 solution diluted 1:1000 in digestion buffer. The samples were separated on a polyacrylamide-6% urea gel.

B1: TReP-132: Transcriptional Regulating Protein of 132 kDa, polypeptide comprising SEQ ID NO: 2; here expressed in cells from vectors (protein)
chain: MGDQQLYKTNHVAHGSENLFYQQPPLGVHSGLNHNYGNAVTGGGMDAPQASPISPHFPQDTRDGLGLPVGSKNLGQMDTSRQGGWGSHAGPGNHVQLRGNLANSNMMWGAPAQAEPTDGYQYTYSQASEIRTQKLTSGVLHKLDSFTQVFANQNLRIQVNNMAQVLHTQSAVMDGAPDSALRQLLSQKPMEPPAPAIPSRYQQVPQQPHPGFTGGLSKPALQVGQHPTQGHLYYDYQQPLAQVPVQGGQPLQAPQMLSQHMQQMQQHQYYPPQQQQQAGQQRISMQEIQTQPQQIRPSQPQPPPQQQQPQQLQLQQRQGSMQIPQYYQPQPMMQHLQEQQQQQMHLQPPSYHRDPHQYTPEQAHTVQLIPLGSMSQYYYQEPQQPYSHPLYQQSHLSQHQQREDSQLKTYSSDRQAQAMLSSHGDLGPPDTGMGDPASSDLTRVSSTLPHRPLLSPSGIHLNNMGPQHQQLSPSAMWPQMHLPDGRAQPGSPESSGQPKGAFGEQFDAKNKLTCSICLKEFKNLPALNGHMRSHGGMRASPNLKQEEGEKVLPPQPQPPLPPPPPPPPPPQLPPEAESLTPMVMPVSVPVKLLPPKPSSQGFTNSTVAAPSARDKPASSMSDDEMPVLEIPRKHQPSVPKAEEPLKTVQEKKKFRHRPEPLFIPPPPSYNPNPAASYSGATLYQSQLRSPRVLGDHLLLDPTHELPPYTPPPMLSPVRQGSGLFSNVLISGHGPGAHPQLPLTPLTPTPRVLLCRSNSIDGSNVTVTPGPGEQTVDVEPRINIGLRFQAEIPELQDISALAQDTHKATLVWKPWPELENHDLQQRVENLLNLCCSSALPGGGTNSEFALHSLFEAKGDVMVALEMLLLRKPVRLKCHPLANYHYAGSDKWTSLERKLFNKALATYSKDFIFVQKMVKSKTVAQCVEYYYTWKKIMRLGRKHRTRLAEIIDDCVTSEEEEELEEEEEEDPEEDRKSTKEEESEVPKSPEPPPVPVLAPTEGPPLQALGQPSGSFICEMPNCGAVFSSRQALNGHARIHGGTNQVTKARGAIPSGKQKPGGTQSGYCSVKSSPSHSTTSGETDPTTIFPCKECGKVFFKIKSRNAHMKTHRQQEEQQRQKAQKAAFAAEMAATIERTTGPVGAPGLLPLDQLSLIKPIKDVDILDDDVVQQLGGVMEEAEVVDTDLLLDDQDSVLLQGDAEL
- cell cycle effect [1]: arrested cells in the G1 phase
- in vitro kinase activity of cyclin A/CDK2 [2]: reduced
- p27 gene transcription [3]: induction
